Experiments:
[1] = system: plasmid pET24 DNA harboring the Syn5 RNAP gene (pET24-S5RNAP); assay: Filter-binding transcription assay (3H-AMP incorporation); format: biochemical
Method: FIGS. 4A-4B depict the effect of temperature and pH on Syn5 RNAP activity. A) Temperature. B) pH. RNA polymerase activity was measured as described in Materials and Methods described herein. The reactions contained 6 mM MgCl2, 200 µM 4 rNTPs (^3H-ATP), 50 nM Syn5 RNAP and 4 nM template (pET24-S5RNAP). The pH was 8.0 for assays in A and the temperature was 24° C. for B. Reactions were terminated and the amount of AMP incorporated was measured at 3, 10, and 30 min. The AMP incorporation was linear in this time range and the data measured at 10 min are presented.
FIGS. 5A-5C depict reaction requirements for Syn5 RNAP. A) Effect of NaCl on Syn5 RNAP activity. B) Effect of KCl on Syn5 and T7 RNAP (dashed line) activity. C) MgCl2 concentration on Syn5 RNAP activity. Reactions contained 200 µM 4 rNTPs (^3H-ATP), 50 nM Syn5 RNAP and 4 nM template (pET24-S5RNAP). For A and B, reactions also contained 6 mM MgCl2. For C, 160 mM KCl was present. Reactions were terminated and the amount of AMP incorporated was measured at 2.5, 5, and 10 min. AMP incorporation was linear in this time range and the data measured at 10 min are presented.
Basic reaction mixtures contained 40 mM Tris-HCl (pH 8.0 unless otherwise specified), 2 mM spermidine, 10 mM DTT, 200 µM[…] GTP, C[…]P, UTP and ^3H-ATP (20 cpm/pmole), 1.5 U/µl RNaseOUT™, 50 nM Syn5 or T7 RNAP and 4 nM plasmid pET24 DNA harboring the Syn5 RNAP gene (pET24-S5RNAP) that contains a single Syn5 promoter in the RNAP gene and a single T7 promoter preceding the gene. Reaction mixtures were incubated at 24° C. unless otherwise specified.
For the assays described in FIG. 7, reaction mixtures contained 40 mM Tris-HCl (pH 8.0), 6 mM MgCl2, 2 mM spermidine, 10 mM DTT, 20 nM Syn5 or T7 RNAP, 20 nM pET24-S5RNAP DNA, 1 mM ^3H-ATP (20 cpm/pmole), CTP, UTP (or GTP), and varying amounts of GTP (or UTP). 160 mM KCl was added for the Syn5 RNAP reactions. After various times the reactions were stopped by the addition of 20 mM EDTA. 4 µl of the mixtures were then loaded onto Whatman DE81 filter paper disks and the disks were washed to remove the unincorporated ^3H-ATP. The amount of insoluble ^3H-AMP, corresponding to nucleotides incorporated into newly synthesized RNA, was measured using a scintillation counter. The data were analyzed using Prism software.

[2] = system: E. coli total aminoacyl-tRNA synthetases; assay: tRNA aminoacylation assay of RNAP products; format: biochemical; conditions: for desired (functional) tRNA in total RNA products: without gel extraction, maximum charging at 30 min
Method: FIGS. 11A-11B depict synthesis of tRNA^Arg by Syn5 and T7 RNA polymerase. A) Synthesis of tRNA^Arg at analytical scale by various amounts of Syn5 and T7 RNA polymerase. Using radioactively labeled CTP, the tRNA^Arg and N+1 product (as marked) produced by 22, 67, 200 nM Syn5 and T7 RNA polymerase at 37° C. are shown. […] The DNA encoding E. coli tRNA^ArgACG is directly downstream of a Syn5 or T7 promoter for the cognate RNA polymerase to synthesize run-off tRNA transcript. B) Synthesis of tRNA^Arg at preparative scale by Syn5 and T7 RNA polymerase. The sequencing gel is showing the analysis of the total RNA products by Syn5 and T7 RNAP at 37° C. in a 200 µl reaction. RNAs were purified by either ZYMO RNA clean kit or phenol/chloroform extraction followed by ethanol precipitation (P/C/E), as noted on top of the gel. The native tRNA^Arg (with modifications) overexpressed and purified from E. coli cells was used as a size marker. The two major bands in the total RNAs are tRNA^Arg and N+1 product as marked.
tRNA Aminoacylation Assay tRNA aminoacylation assay was performed as described previously (Tan et al.). A reaction containing 100 mM Tris-HCl, pH 7.5, 30 mM KCl, 12 mM MgCl2, 0.5 mM DTT, 4 mM ATP, 0.2 […]RNA (purified native E. coli tRNA^Arg (Zhu et al. (2012)), or purified tRNA^Arg transcripts from Syn5 or T7 RNAP reaction using RNA Clean & Concentrator™-5 kit), 15 µM [^3H] arginine (15 Ci/mmol), and 4 µM E. coli total aminoacyl-tRNA synthetases was incubated at 37° C. for the indicated time period. 5 µl reaction mixtures were spotted onto Whatman DE(81) filters and reactions stopped by 10% TCA solution containing 0.5 mM arginine. The filters were washed twice with 10% TCA and once with ethanol, and then dried. The amount of amino acid charged to tRNA was determined by measuring radioactivity remained on the filters.

T7 RNAP: RNA polymerase encoded by bacteriophage T7, from New England Biolabs [reference compound]
sensitivity to ionic strength ([1]; KCl titration, FIG. 5B): highly sensitive to the ionic strength of the reaction | desired (functional) tRNA in total RNA products [2]: 15%

B1: Syn5 RNAP: single subunit DNA-dependent RNA polymerase from marine cyanophage Syn5, amino acid sequence SEQ ID NO:23 (protein)
chain: MSFDLIARQLQRETEAAELARKRLQDARREANERSYASSNIESRKAIATFLDPIAQRIGERLFTLRRGTGAVDAAEVYKHLKNADHHHLALITMKTALDVLGKDPEPQIQQLTTAIGRNIQLELRLTYYAEENPELYKQASRFFHAGTGTRQKATVIKLKFNREGIEWDQWSRVTCHKVGQWLMLAMADVTGWIERATDRTSGGRKTKTRICYSREFLQHRDTILAAAEQLAFCQWPMLCPPIEWSNDHNGGYLSEQIRRVNPLIRKTGPLGTRKQGDIPLAMLNNLQGQAYKVNPEVLDIANHCYESNVTVGKFIRHAPLPVPPSPGEDCTEDQLTAYKRARREAEDFNAQISQKNWRTTEVMYVARKYADEASFWMPASFDYRGRVYFLNTALNPQGTDFDKALLYFAEEGPVNEWWLSFHVATTYGLDKETMVNRVQWARDNHELIDRIASDPVRHTEWHDADEPWCFLAACLEYKACVIDGTKQTSGLPIGIDATCSGLQHLAAMTRCGRTAALVNVTPTDKPADAYKTVAQASLKHLPKEQHEWITRKVTKRPVMCTPYGVTMSSARGYIRDQLVKDGHKEDLRSPGVLNGIVKAIFNEAIPEVIPGPVQVMAWLKRSAGQIIDRGDSTITWTTPSGFEVVQDLKKSKTYEVKTRIMGGARIKLQVGDGFTDEPDRDHHKSALAPNVVHSNDASLLHLTFAFWDKPFTVIHDCVLGRSCDMDQMGSDIRLHFAEMYKADVMQDWADQVGVELPVDLIKNTLDIDSVNQSLYFFS
modifications: Amino acid sequence of a cyanophage Syn5 RNAP
potassium required for maximal activity [1]: 160 mM | metal ions in place of Mg2+ as cofactor ([1]; 10 mM Ca2+, Co2+, Cu2+ or Ni2+): cannot replace Mg^2+ | metal ions in place of Mg2+ as cofactor ([1]; 10 mM Zn2+ or Mn2+): A small amount of activity | increase of activity by NaCl ([1]; 80 mM NaCl, 6 mM MgCl2): two-fold | stimulation of activity by KCl ([1]; 160 mM KCl, 6 mM MgCl2): three-fold | activity remaining ([1]; 300 mM KCl): 10% | pH of highest activity ([1]; 24° C.): 8.0 | % of maximum activity ([1]; at 0° C.): 15% | % of maximum activity ([1]; at 37° C.): 8% | % of maximum activity ([1]; at 42° C.): 2% | Km ([1]; in the presence of 160 mM KCl, read-out: Km for MgCl2 as cofactor): ~2500 µM | optimum temperature ([1]; pH 8.0, 6 mM MgCl2, 50 nM RNAP, 4 nM template): 24 °C | amino acid charging activity of products ([2]; [3H] arginine, 37° C.): much higher than that obtained from the T7 RNAP reaction | desired (functional) tRNA in total RNA products [2]: 40%

— US11066655B2, “RNA polymerase, methods of purification and methods of use” (President and Fellows of Harvard College, priority 2013, dated 2021)
